Paper PMC4242096 (Nature structural & molecular biology, 2013)
Non-standard residues stand in square brackets, D forms with d. No end group written: not given here. pY = N[C@@H](Cc1ccc(OP(=O)(O)O)cc1)C(=O)O; pT = C[C@@H](OP(=O)(O)O)[C@H](N)C(=O)O; pS = N[C@@H](COP(=O)(O)O)C(=O)O

B1: S. cerevisiae Cks (Cks1), wild type (natural protein, UniProt P20486 1-150, looked up)
chain: MYHHYHAFQGRKLTDQERARVLEFQDSIHYSPRYSDDNYEYRHVMLPKAMLKVIPSDYFNSEVGTLRILTEDEWRGLGITQSLGWEHYECHAPEPHILLFKRPLNYEAELRAATAAAQQQQQQQQQQQQQQQQHQTQSISNDMQVPPQIS

What was measured:
S. cerevisiae Cks (Cks1) = biological target: T1, S. cerevisiae Cks (Cks1) (Saccharomyces cerevisiae, UniProt P20486); assay: Isothermal titration calorimetry; assay type: binding; conditions: ITC; for Cks1 Kd (µM): phosphorylated Cdk substrate peptides, value ± error as printed
T1 sequence (P20486 1-150): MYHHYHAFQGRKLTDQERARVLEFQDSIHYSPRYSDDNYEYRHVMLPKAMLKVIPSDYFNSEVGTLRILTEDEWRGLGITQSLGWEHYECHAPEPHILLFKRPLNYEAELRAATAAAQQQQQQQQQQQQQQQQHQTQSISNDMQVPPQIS

phosphorylated Cdc6^1–48 = phosphorylated Cdc6^1–48 (UniProt P09119); assay: ITC
[1] = biological target: phosSic1ΔC ΔC (Saccharomyces cerevisiae) (UniProt P38634); conditions: cited from earlier work
[2] = biological target: phosSic1 N-terminus N-terminus (Saccharomyces cerevisiae) (UniProt P38634); conditions: cited from earlier work
[3] = biological target: T2, Cdc6^(1–48;T23A T39A S43A), only T7 phosphorylated (UniProt P09119 1-48, T23A | T39A | S43A, only T7 phosphorylated); assay: ITC
T2 chain (looked up): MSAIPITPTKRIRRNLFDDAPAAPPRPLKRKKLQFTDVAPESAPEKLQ

[4] = biological target: T3, Cdc6^(1–48;T7A T39A S43A), only T23 phosphorylated (UniProt P09119 1-48, T7A | T39A | S43A, only T23 phosphorylated); assay: ITC
T3 chain (looked up): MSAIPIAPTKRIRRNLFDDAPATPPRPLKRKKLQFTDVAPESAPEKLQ

[5] = biological target: B1; assay: ITC

Sequence of phosSic1 N-terminus N-terminus (Saccharomyces cerevisiae) (P38634 1-100): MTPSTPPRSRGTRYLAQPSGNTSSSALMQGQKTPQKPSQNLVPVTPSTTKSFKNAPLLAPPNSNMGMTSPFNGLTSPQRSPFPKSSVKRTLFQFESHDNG
Sequence of phosSic1ΔC ΔC (Saccharomyces cerevisiae) (P38634 1-215, stated change not applied): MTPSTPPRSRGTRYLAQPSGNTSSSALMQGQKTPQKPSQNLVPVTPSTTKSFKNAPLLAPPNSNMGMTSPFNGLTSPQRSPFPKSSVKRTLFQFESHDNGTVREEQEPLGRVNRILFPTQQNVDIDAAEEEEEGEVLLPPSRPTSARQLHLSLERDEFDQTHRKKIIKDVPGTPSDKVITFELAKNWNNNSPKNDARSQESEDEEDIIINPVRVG

**Q.** For “phosCdc6^1–48: purified N-terminal domain of Cdc6 (residues 1–48) phosphorylated with recombinant Cdk (MSAIPI[pT]PTKRIRRNLFDDAPA[pT]PPRPLKRKKLQFTDV[pT]PES[pS]PEKLQ)”, which “stoichiometry parameter n (Cks1 molecules per Cdc6 molecule)” value (S. cerevisiae Cks (Cks1); data fit to a one site model) is on record?
**A.** The value was “≈ 2”.

**Q.** For “S. cerevisiae Cks (Cks1), wild type (from UniProt P20486 1-150) (natural protein)”, which Kd (phosphorylated Cdc6^1–48) is on record?
**A.** The Kd was 9.8 µM.

**Q.** What about the stoichiometry N (phosphorylated Cdc6^1–48) of the same molecule?
**A.** Its stoichiometry N is 2.

**Q.** With Cks1 (from UniProt P20486) as the molecule, how does the Kd [1] read?
**A.** Its Kd is 20 µM.

**Q.** And the Kd [2]?
**A.** The Kd was 11 µM.

**Q.** With SAIPI[pY]PTK [phosCdc6^2–10; pT7pY] as the molecule, how does the “Cks1 Kd (µM)” value (S. cerevisiae Cks (Cks1)) read?
**A.** Its value is “no heat”.

**Q.** With SAIPI[pS]PTK [phosCdc6^2–10; pT7pS] as the molecule, how does the “Cks1 Kd (µM)” value (S. cerevisiae Cks (Cks1)) read?
**A.** The value was “no heat”.

**Q.** With B1 as the molecule, how does the “stoichiometry N” value [3] read?
**A.** Its value is ~1.

**Q.** And the “stoichiometry N” value [4]?
**A.** The value was ~1.

**Q.** For SAIPI[pT]P [phosCdc6^2–8], which Kd [5] is on record?
**A.** The Kd was 62 ± 2 µM.

**Q.** With SAIPI[pT]PTK [phosCdc6^2–10] as the molecule, how does the Kd [5] read?
**A.** The Kd was 130 ± 60 µM.

**Q.** Which Kd [5] does the source give for AIPI[pT]P [phosCdc6^3–8] here?
**A.** Its Kd is 81 ± 6 µM.

**Q.** Which Kd [5] does the source give for AIPI[pT]PT [phosCdc6^3–9] here?
**A.** Its Kd is 61 ± 9 µM.

**Q.** For TPS[pT]PPRS [phosSic1^2–9], which Kd [5] is on record?
**A.** Its Kd is 95 ± 8 µM.

**Q.** With TYS[pT]PPRS [phosSic1^(2–9; P3Y)] as the molecule, how does the Kd [5] read?
**A.** The Kd was 90 ± 50 µM.

**Q.** For TPS[pT]PKRS [phosSic1^(2–9; P7K)], which Kd [5] is on record?
**A.** Its Kd is 120 ± 20 µM.

**Q.** With TPS[pT]PTRS [phosSic1^(2–9; P7T)] as the molecule, how does the Kd [5] read?
**A.** Its Kd is 70 ± 20 µM.

**Q.** Which Kd [5] does the source give for ESVT[pT]PIT [phosSwe1^117–124] here?
**A.** The Kd was 170 ± 90 µM.

**Q.** For RIPE[pT]PVK [phosSwe1^192–199], which Kd [5] is on record?
**A.** Its Kd is 60 ± 10 µM.

**Q.** For EEIS[pT]PTR [phosSwe1^369–376], which Kd [5] is on record?
**A.** Its Kd is 160 ± 70 µM.
